Results as given in paper PMC9482650, “Quantitative fragmentomics allow affinity mapping of interactomes” (Nature Communications, 2022).

T1: GRIP1_5, Q9Y3R0
T1 sequence (Q9Y3R0 568-668, limits assumed, looked up): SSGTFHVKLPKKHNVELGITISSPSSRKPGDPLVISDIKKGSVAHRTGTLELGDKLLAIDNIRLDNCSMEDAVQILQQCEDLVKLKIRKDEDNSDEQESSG

T2: GRIP1_7, Q9Y3R0
T2 sequence (Q9Y3R0 999-1096, limits assumed, looked up): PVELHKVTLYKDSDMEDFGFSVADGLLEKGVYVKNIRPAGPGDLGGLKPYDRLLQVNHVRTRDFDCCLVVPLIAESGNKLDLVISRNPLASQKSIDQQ

T3: PDZD2_2, O15018
T3 sequence (O15018 329-429, limits assumed, looked up): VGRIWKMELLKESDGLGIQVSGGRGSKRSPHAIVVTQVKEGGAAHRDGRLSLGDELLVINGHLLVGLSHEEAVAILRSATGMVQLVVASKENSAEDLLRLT

T4: MPP6, Q9NZW5
T4 sequence (Q9NZW5 125-219, limits assumed, looked up): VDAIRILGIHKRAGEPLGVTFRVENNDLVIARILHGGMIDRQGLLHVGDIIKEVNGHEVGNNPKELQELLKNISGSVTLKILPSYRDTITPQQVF

T5: RAPGEF6, Q8TEU7
T5 sequence (Q8TEU7 525-625, limits assumed, looked up): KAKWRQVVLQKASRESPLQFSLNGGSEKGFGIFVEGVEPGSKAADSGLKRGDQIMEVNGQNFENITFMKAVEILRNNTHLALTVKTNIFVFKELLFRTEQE

T6: PCLO, Q9Y6V0
T6 sequence (Q9Y6V0 4491-4600, limits assumed, looked up): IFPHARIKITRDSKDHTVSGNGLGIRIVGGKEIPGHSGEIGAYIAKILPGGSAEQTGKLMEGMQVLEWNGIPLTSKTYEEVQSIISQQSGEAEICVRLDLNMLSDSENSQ

T7: GRIP1_3, Q9Y3R0
T7 sequence (Q9Y3R0 247-346, limits assumed, looked up): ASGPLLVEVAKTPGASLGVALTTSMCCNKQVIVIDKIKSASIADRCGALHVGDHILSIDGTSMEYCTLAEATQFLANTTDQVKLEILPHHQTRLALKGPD

T8: ARHGEF11, O15085
T8 sequence (O15085 42-136, limits assumed, looked up): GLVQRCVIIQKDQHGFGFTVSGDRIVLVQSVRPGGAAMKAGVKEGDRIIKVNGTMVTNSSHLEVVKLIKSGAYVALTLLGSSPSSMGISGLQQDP

T9: GRIP1_2, Q9Y3R0
T9 sequence (Q9Y3R0 145-248, limits assumed, looked up): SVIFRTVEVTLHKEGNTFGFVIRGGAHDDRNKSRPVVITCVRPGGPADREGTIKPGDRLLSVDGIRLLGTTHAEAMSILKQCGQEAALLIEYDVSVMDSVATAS

T10: DFNB31_2, Q9P202
T10 sequence (Q9P202 274-371, limits assumed, looked up): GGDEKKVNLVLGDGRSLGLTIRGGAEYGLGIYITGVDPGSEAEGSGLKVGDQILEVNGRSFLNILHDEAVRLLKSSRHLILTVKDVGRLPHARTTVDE


Assays:
Test in all cases: holdup assay
Design in all cases: key: below the threshold = too weak to quantify, mostly under pKd 3.1 to 4
Details in all cases: plain residues with an end cap or a label only (N-terminal biotin on a linker: ado-ado)
GRIP1_5, Q9Y3R0 = molecular target: T1, GRIP1_5, Q9Y3R0
GRIP1_7, Q9Y3R0 = molecular target: T2, GRIP1_7, Q9Y3R0
SNX27, Q96L92 = molecular target: SNX27, Q96L92
PDZD2_2, O15018 = molecular target: T3, PDZD2_2, O15018
Inadl_3, Q8NI35 = molecular target: Inadl_3, Q8NI35
Sequence of Inadl_3, Q8NI35 (Q8NI35 359-469): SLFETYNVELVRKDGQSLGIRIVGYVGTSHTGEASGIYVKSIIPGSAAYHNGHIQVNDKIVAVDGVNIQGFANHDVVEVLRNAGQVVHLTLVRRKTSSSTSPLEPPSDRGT

MAST2, Q6P0Q8 = molecular target: MAST2, Q6P0Q8
Sequence of MAST2, Q6P0Q8 (Q6P0Q8 1099-1202): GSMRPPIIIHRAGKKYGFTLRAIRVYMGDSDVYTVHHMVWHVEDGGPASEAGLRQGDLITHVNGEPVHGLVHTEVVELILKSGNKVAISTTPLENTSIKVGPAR

Inadl_10, Q8NI35 = molecular target: Inadl_10, Q8NI35
Sequence of Inadl_10, Q8NI35 (Q8NI35 1673-1763): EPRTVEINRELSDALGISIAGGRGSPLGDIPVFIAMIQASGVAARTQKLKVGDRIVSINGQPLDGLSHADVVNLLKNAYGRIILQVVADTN

LIMK2, P53671 = molecular target: LIMK2, P53671
Sequence of LIMK2, P53671 (P53671 143-248): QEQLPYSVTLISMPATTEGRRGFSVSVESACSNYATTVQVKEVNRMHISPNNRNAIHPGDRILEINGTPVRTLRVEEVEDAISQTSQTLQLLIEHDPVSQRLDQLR

MPP6, Q9NZW5 = molecular target: T4, MPP6, Q9NZW5
PDZRN4_1, Q6ZMN7 = molecular target: PDZRN4_1, Q6ZMN7
Sequence of PDZRN4_1, Q6ZMN7 (Q6ZMN7 213-318): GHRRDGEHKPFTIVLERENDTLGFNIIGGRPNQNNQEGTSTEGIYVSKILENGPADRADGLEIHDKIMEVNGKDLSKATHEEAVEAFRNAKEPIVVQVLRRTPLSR

TJP2_1, Q9UDY2 = molecular target: TJP2_1, Q9UDY2
Sequence of TJP2_1, Q9UDY2 (Q9UDY2 24-128): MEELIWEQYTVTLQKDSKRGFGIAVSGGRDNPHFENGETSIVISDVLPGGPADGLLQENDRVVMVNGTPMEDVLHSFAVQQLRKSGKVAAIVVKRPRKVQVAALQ

Inadl_6, Q8NI35 = molecular target: Inadl_6, Q8NI35
Sequence of Inadl_6, Q8NI35 (Q8NI35 1058-1167): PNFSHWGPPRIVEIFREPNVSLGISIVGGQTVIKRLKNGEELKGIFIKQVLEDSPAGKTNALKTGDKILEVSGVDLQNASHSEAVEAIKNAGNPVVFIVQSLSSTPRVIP

GRIP2_7, Q9C0E4 = molecular target: GRIP2_7, Q9C0E4
Sequence of GRIP2_7, Q9C0E4 (Q9C0E4 934-1023): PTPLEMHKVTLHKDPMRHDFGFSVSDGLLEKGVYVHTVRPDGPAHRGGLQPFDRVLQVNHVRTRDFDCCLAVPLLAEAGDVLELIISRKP

RAPGEF6, Q8TEU7 = molecular target: T5, RAPGEF6, Q8TEU7
PCLO, Q9Y6V0 = molecular target: T6, PCLO, Q9Y6V0
GRIP1_3, Q9Y3R0 = molecular target: T7, GRIP1_3, Q9Y3R0
Inadl_2, Q8NI35 = molecular target: Inadl_2, Q8NI35
Sequence of Inadl_2, Q8NI35 (Q8NI35 238-335): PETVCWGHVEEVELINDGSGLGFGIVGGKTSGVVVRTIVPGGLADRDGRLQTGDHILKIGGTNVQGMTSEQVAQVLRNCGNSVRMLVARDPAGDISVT

GIPC2, Q8TF65 = molecular target: GIPC2, Q8TF65
Sequence of GIPC2, Q8TF65 (Q8TF65 112-203): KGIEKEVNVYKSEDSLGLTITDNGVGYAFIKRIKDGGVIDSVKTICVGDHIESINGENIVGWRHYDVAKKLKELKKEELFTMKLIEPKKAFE

GRID2IP_2, A4D2P6 = molecular target: GRID2IP_2, A4D2P6
Sequence of GRID2IP_2, A4D2P6 (A4D2P6 272-370): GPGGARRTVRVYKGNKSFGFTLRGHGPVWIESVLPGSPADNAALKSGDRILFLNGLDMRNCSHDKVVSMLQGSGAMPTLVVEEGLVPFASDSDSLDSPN

MAGI2_5, Q86UL8 = molecular target: MAGI2_5, Q86UL8
Sequence of MAGI2_5, Q86UL8 (Q86UL8 915-1017): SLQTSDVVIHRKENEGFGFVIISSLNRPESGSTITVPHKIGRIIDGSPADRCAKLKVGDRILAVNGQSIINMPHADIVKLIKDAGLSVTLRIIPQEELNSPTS

ARHGEF11, O15085 = molecular target: T8, ARHGEF11, O15085
GRIP2_6, Q9C0E4 = molecular target: GRIP2_6, Q9C0E4
Sequence of GRIP2_6, Q9C0E4 (Q9C0E4 648-740): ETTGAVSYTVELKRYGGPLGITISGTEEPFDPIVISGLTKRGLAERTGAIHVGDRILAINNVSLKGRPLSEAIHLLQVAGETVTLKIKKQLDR

GRIP1_2, Q9Y3R0 = molecular target: T9, GRIP1_2, Q9Y3R0
MAGI1_2, Q96QZ7 = molecular target: MAGI1_2, Q96QZ7
Sequence of MAGI1_2, Q96QZ7 (Q96QZ7 456-580): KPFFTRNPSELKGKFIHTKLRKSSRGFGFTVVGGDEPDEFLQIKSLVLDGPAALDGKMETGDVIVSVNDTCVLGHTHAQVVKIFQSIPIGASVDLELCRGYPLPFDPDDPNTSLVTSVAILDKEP

DFNB31_2, Q9P202 = molecular target: T10, DFNB31_2, Q9P202
Inadl_8, Q8NI35 = molecular target: Inadl_8, Q8NI35
Sequence of Inadl_8, Q8NI35 (Q8NI35 1425-1530): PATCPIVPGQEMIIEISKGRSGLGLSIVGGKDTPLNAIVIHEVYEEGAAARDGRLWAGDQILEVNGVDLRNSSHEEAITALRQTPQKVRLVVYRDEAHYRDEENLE

GORASP1, Q9BQQ3 = molecular target: GORASP1, Q9BQQ3
Sequence of GORASP1, Q9BQQ3 (Q9BQQ3 1-208): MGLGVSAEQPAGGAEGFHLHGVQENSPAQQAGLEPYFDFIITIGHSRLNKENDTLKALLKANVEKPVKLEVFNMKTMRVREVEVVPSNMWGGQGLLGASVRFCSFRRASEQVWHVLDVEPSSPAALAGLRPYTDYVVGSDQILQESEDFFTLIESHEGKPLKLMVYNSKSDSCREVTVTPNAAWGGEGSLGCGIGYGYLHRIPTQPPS

AHNAK1, Q09666 = molecular target: AHNAK1, Q09666
Sequence of AHNAK1, Q09666 (Q09666 4-100): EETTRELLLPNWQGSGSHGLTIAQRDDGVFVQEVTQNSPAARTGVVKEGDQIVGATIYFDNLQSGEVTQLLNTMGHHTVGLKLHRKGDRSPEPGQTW

Row | pKd (GRIP1_5, Q9Y3R0) | pKd (GRIP1_7, Q9Y3R0) | pKd (SNX27, Q96L92) | pKd (PDZD2_2, O15018) | pKd (Inadl_3, Q8NI35) | pKd (MAST2, Q6P0Q8) | pKd (Inadl_10, Q8NI35) | pKd (LIMK2, P53671) | pKd (MPP6, Q9NZW5) | pKd (PDZRN4_1, Q6ZMN7) | pKd (TJP2_1, Q9UDY2) | pKd (Inadl_6, Q8NI35) | pKd (GRIP2_7, Q9C0E4) | pKd (RAPGEF6, Q8TEU7) | pKd (PCLO, Q9Y6V0) | pKd (GRIP1_3, Q9Y3R0) | pKd (Inadl_2, Q8NI35) | pKd (GIPC2, Q8TF65) | pKd (GRID2IP_2, A4D2P6) | pKd (MAGI2_5, Q86UL8) | Binder | other results
1 | below the threshold | below the threshold | 5.4 | 3.68 | below the threshold | 5.28 | below the threshold | below the threshold | below the threshold | 3.91 | below the threshold | below the threshold | 3.47 | below the threshold | below the threshold | below the threshold | below the threshold | 3.63 | 3.61 | below the threshold | QLAEIAESGL [ITK, Q08881] | pKd (ARHGEF11, O15085): 4.05; pKd (GRIP2_6, Q9C0E4): 3.48; pKd (GRIP1_2, Q9Y3R0): below the threshold; pKd (MAGI1_2, Q96QZ7): below the threshold; pKd (DFNB31_2, Q9P202): below the threshold; pKd (Inadl_8, Q8NI35): 3.52; pKd (GORASP1, Q9BQQ3): 3.53; pKd (AHNAK1, Q09666): below the threshold
2 | below the threshold | below the threshold | below the threshold | below the threshold | below the threshold | 3.88 | below the threshold | below the threshold | below the threshold | below the threshold | below the threshold | below the threshold | below the threshold | below the threshold | below the threshold | below the threshold | below the threshold | below the threshold | below the threshold | below the threshold | VGIERETDVL [EZH1, Q92800] | pKd (ARHGEF11, O15085): below the threshold; pKd (GRIP2_6, Q9C0E4): below the threshold; pKd (GRIP1_2, Q9Y3R0): below the threshold; pKd (MAGI1_2, Q96QZ7): below the threshold; pKd (DFNB31_2, Q9P202): below the threshold; pKd (Inadl_8, Q8NI35): below the threshold; pKd (GORASP1, Q9BQQ3): below the threshold; pKd (AHNAK1, Q09666): below the threshold
3 | below the threshold | below the threshold | 4.1 | 4.82 | below the threshold | 4.75 | below the threshold | below the threshold | 3.77 | 4.23 | below the threshold | below the threshold | below the threshold | below the threshold | below the threshold | below the threshold | below the threshold | below the threshold | 3.76 | below the threshold | GSSSKEGTSV [RRBP1, Q9P2E9] | pKd (ARHGEF11, O15085): 3.83; pKd (GRIP2_6, Q9C0E4): below the threshold; pKd (GRIP1_2, Q9Y3R0): below the threshold; pKd (MAGI1_2, Q96QZ7): 3.87; pKd (DFNB31_2, Q9P202): below the threshold; pKd (Inadl_8, Q8NI35): 3.91; pKd (GORASP1, Q9BQQ3): below the threshold; pKd (AHNAK1, Q09666): below the threshold

Continued, binder first:

Row | Binder | pKd (GRIP1_5, Q9Y3R0) | pKd (GRIP1_7, Q9Y3R0) | pKd (SNX27, Q96L92) | pKd (PDZD2_2, O15018) | pKd (Inadl_3, Q8NI35) | pKd (MAST2, Q6P0Q8) | pKd (Inadl_10, Q8NI35) | pKd (LIMK2, P53671) | pKd (MPP6, Q9NZW5) | pKd (PDZRN4_1, Q6ZMN7) | pKd (TJP2_1, Q9UDY2) | pKd (Inadl_6, Q8NI35) | pKd (GRIP2_7, Q9C0E4) | pKd (RAPGEF6, Q8TEU7) | pKd (PCLO, Q9Y6V0) | pKd (GRIP1_3, Q9Y3R0) | pKd (Inadl_2, Q8NI35) | pKd (GIPC2, Q8TF65) | pKd (GRID2IP_2, A4D2P6) | pKd (MAGI2_5, Q86UL8) | other results
4 | EGGKKRESEA [APPL1, Q9UKG1] | below the threshold | below the threshold | below the threshold | below the threshold | below the threshold | below the threshold | below the threshold | below the threshold | below the threshold | below the threshold | below the threshold | below the threshold | below the threshold | 3.49 | below the threshold | below the threshold | below the threshold | below the threshold | below the threshold | below the threshold | pKd (ARHGEF11, O15085): below the threshold; pKd (GRIP2_6, Q9C0E4): below the threshold; pKd (GRIP1_2, Q9Y3R0): below the threshold; pKd (MAGI1_2, Q96QZ7): below the threshold; pKd (DFNB31_2, Q9P202): below the threshold; pKd (Inadl_8, Q8NI35): below the threshold; pKd (GORASP1, Q9BQQ3): below the threshold; pKd (AHNAK1, Q09666): below the threshold
5 | ADRDHASDQL [CTBP1, Q13363] | below the threshold | below the threshold | below the threshold | below the threshold | below the threshold | below the threshold | below the threshold | below the threshold | below the threshold | below the threshold | below the threshold | below the threshold | below the threshold | below the threshold | below the threshold | below the threshold | below the threshold | below the threshold | below the threshold | below the threshold | pKd (ARHGEF11, O15085): below the threshold; pKd (GRIP2_6, Q9C0E4): below the threshold; pKd (GRIP1_2, Q9Y3R0): below the threshold; pKd (MAGI1_2, Q96QZ7): below the threshold; pKd (DFNB31_2, Q9P202): below the threshold; pKd (Inadl_8, Q8NI35): below the threshold; pKd (GORASP1, Q9BQQ3): below the threshold; pKd (AHNAK1, Q09666): below the threshold
